Reference: patent US20220332795A1 (ARO BIOTHERAPEUTICS, published 2022)
Where a chain is given by its changes, count along the chain named.

B1: SEQ ID NO 241 (designed binder, not shown: small tags and cut ends)
chain: MLPAPKNLVVSRVTEDSARLSWTAPDAAFDSFFIGYLEPQPPGEAIHLGVPGSERSYDLTGLKPGTEYNVTIQGVKGGFPSIPLFASFTT
B2: SEQ ID NO 225 (designed binder, not shown: small tags and cut ends)
chain: MLPAPKNLVVSRVTEDSARLSWTAPDAAFDSFYIAYAEPRPDGEAILLQVPGSERSYDLTGLKPGTEYSVLIHGVKGGLLSSPLSASFTT
B3: SEQ ID NO 249 (designed binder, not shown: small tags and cut ends)
chain: B2 chain with L47V, Q49E, S85H, S87N
B4: SEQ ID NO 209 (designed binder, not shown: small tags and cut ends)
chain: B2 chain with E54C, S85T, S87I
notes: also called ABX1198
B5: SEQ ID NO 211 (designed binder, not shown: small tags and cut ends)
chain: B2 chain with L47Q, Q49H, S85V, S87I
B6: SEQ ID NO 242 (designed binder, not shown: small tags and cut ends)
chain: B2 chain with L47Q, Q49L, S85Y, S87A
B7: SEQ ID NO 227 (designed binder, not shown: small tags and cut ends)
chain: B2 chain with L47G, Q49R, S87I
B8: SEQ ID NO 206 (designed binder, not shown: small tags and cut ends)
chain: B2 chain with L47G, Q49D, S87I
B9: SEQ ID NO 248 (designed binder, not shown: small tags and cut ends)
chain: B2 chain with L47W, Q49G, S85H, S87T
B10: SEQ ID NO 247 (designed binder, not shown: small tags and cut ends)
chain: B2 chain with Q49H, S85R
B11: SEQ ID NO 240 (designed binder, not shown: small tags and cut ends)
chain: B2 chain with L47S, Q49S, S85H, S87K
B12: SEQ ID NO 245 (designed binder, not shown: small tags and cut ends)
chain: B2 chain with L47A, Q49W, S85V
B13: SEQ ID NO 214 (designed binder, not shown: small tags and cut ends)
chain: B2 chain with L47G, S85C, S87E
B14: SEQ ID NO 207 (designed binder, not shown: small tags and cut ends)
chain: B2 chain with L47H, Q49S, S85A, S87Y
B15: SEQ ID NO 239 (designed binder, not shown: small tags and cut ends)
chain: B2 chain with L47Q, Q49V, S85Y, S87I
B16: SEQ ID NO 226 (designed binder, not shown: small tags and cut ends)
chain: B2 chain with L47G, Q49H, S85T
B17: SEQ ID NO 218 (designed binder, not shown: small tags and cut ends)
chain: B2 chain with L47H, Q49V, S87I
B18: SEQ ID NO 256 (designed binder, not shown: small tags and cut ends)
chain: B2 chain with L47Q, Q49T, S85H, S87Y
B19: SEQ ID NO 254 (designed binder, not shown: small tags and cut ends)
chain: B2 chain with Q49A, S87K

Molecular target: T1, human CD71 extracellular domain (human, UniProt P02786 89-760, biotinylated)
T1 construct: extracellular domain; also called hCD71; huCD71 ECD
Assay: solution ELISA screen, signal ratio to HSA control

T1 sequence (P02786 other isoform, or with tags, fused parts or gaps): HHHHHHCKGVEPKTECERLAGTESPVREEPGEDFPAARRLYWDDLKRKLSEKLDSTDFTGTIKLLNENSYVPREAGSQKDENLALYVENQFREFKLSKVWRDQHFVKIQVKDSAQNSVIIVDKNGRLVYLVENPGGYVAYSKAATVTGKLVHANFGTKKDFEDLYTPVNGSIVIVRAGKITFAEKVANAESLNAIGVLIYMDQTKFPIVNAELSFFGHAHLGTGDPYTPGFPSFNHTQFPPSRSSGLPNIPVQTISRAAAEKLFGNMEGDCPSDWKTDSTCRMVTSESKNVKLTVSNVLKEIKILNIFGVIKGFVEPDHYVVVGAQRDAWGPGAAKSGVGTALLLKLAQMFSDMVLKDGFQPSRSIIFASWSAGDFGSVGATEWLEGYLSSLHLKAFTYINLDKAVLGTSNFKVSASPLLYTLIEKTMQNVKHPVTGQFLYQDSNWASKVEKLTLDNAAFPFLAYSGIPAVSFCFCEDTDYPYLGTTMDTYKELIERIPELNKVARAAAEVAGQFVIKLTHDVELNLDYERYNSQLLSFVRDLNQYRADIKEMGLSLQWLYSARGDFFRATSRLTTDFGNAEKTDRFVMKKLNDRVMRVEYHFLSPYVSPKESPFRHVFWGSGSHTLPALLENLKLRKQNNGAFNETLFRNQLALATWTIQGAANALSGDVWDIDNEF

Compared with B1, B2 is higher in “hCD71:HSA” value: 117 ratio for the first, 239 ratio for the second.

First: B3
Second: B4
The “hCD71:HSA” value of the first is lower: 205 ratio for the first, 348 ratio for the second.

Compared with B5, B6 is lower in “hCD71:HSA” value: 50.6 ratio for the first, 31.9 ratio for the second.

First: B7
Second: B8
The “hCD71:HSA” value of the first is lower: 22.5 ratio for the first, 59.1 ratio for the second.

First: B9
Second: B10
The “hCD71:HSA” value of the first is lower: 22.2 ratio for the first, 226 ratio for the second.

First: B11
Second: B12
The “hCD71:HSA” value of the first is lower: 33.9 ratio for the first, 41.9 ratio for the second.

First: B13
Second: B14
The “hCD71:HSA” value of the first is lower: 13 ratio for the first, 22.6 ratio for the second.

First: B15
Second: B16
The “hCD71:HSA” value of the first is lower: 26.5 ratio for the first, 135 ratio for the second.

First: B17
Second: B18
The “hCD71:HSA” value of the first is lower: 10.2 ratio for the first, 27.2 ratio for the second.

With B19 the “hCD71:HSA” value was 104 ratio.

Molecular target: T2, CD71 apical domain (human, UniProt P02786 189-383, limits assumed)
T2 construct: domain: apical domain
Assay: solution ELISA screen, signal ratio to HSA control

T2 sequence (P02786 189-383 limits assumed): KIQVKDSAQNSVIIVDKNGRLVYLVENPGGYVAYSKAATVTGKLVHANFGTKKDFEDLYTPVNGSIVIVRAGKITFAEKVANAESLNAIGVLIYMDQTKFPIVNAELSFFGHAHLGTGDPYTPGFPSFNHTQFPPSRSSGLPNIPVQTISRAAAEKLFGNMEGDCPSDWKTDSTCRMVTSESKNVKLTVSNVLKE

Going from B1 to B2, the “apical domain:HSA” value rises from 190 ratio to 435 ratio.

First: B3
Second: B4
The “apical domain:HSA” value of the first is lower: 308 ratio for the first, 466 ratio for the second.

First: B5
Second: B6
The “apical domain:HSA” value of the first is higher: 363 ratio for the first, 241 ratio for the second.

First: B7
Second: B8
The “apical domain:HSA” value of the first is lower: 177 ratio for the first, 373 ratio for the second.

First: B9
Second: B10
The “apical domain:HSA” value of the first is lower: 160 ratio for the first, 394 ratio for the second.

First: B11
Second: B12
The “apical domain:HSA” value of the first is higher: 292 ratio for the first, 259 ratio for the second.

First: B13
Second: B14
The “apical domain:HSA” value of the first is higher: 143 ratio for the first, 58.8 ratio for the second.

Going from B15 to B16, the “apical domain:HSA” value rises from 221 ratio to 400 ratio.

Going from B17 to B18, the “apical domain:HSA” value falls from 202 ratio to 76.7 ratio.

With B19 the “apical domain:HSA” value was 308 ratio.

Molecular target: T1, human CD71 extracellular domain
Assay: solution ELISA screen (luminescence)

Compared with B1, B2 is higher in RLU: 3.1e+06 RLU for the first, 4.06e+06 RLU for the second.

First: B3
Second: B4
The RLU of the first is lower: 4.94e+06 RLU for the first, 6.2e+06 RLU for the second.

First: B5
Second: B6
The RLU of the first is higher: 660000 RLU for the first, 648000 RLU for the second.

First: B7
Second: B8
The RLU of the first is lower: 635000 RLU for the first, 828000 RLU for the second.

Compared with B9, B10 is higher in RLU: 756000 RLU for the first, 4.3e+06 RLU for the second.

First: B11
Second: B12
The RLU of the first is lower: 610000 RLU for the first, 774000 RLU for the second.

Going from B13 to B14, the RLU rises from 393000 RLU to 2.74e+06 RLU.

Compared with B15, B16 is higher in RLU: 559000 RLU for the first, 2.15e+06 RLU for the second.

Compared with B17, B18 is higher in RLU: 144000 RLU for the first, 2.07e+06 RLU for the second.

With B19 the RLU was 2.24e+06 RLU.

Molecular target: T2, CD71 apical domain
Assay: solution ELISA screen (luminescence)

Going from B1 to B2, the RLU rises from 5.05e+06 RLU to 7.38e+06 RLU.

First: B3
Second: B4
The RLU of the first is lower: 7.43e+06 RLU for the first, 8.3e+06 RLU for the second.

First: B5
Second: B6
The RLU of the first is lower: 4.74e+06 RLU for the first, 4.9e+06 RLU for the second.

Compared with B7, B8 is higher in RLU: 4.99e+06 RLU for the first, 5.22e+06 RLU for the second.

Compared with B9, B10 is higher in RLU: 5.45e+06 RLU for the first, 7.51e+06 RLU for the second.

First: B11
Second: B12
The RLU of the first is higher: 5.26e+06 RLU for the first, 4.77e+06 RLU for the second.

Compared with B13, B14 is higher in RLU: 4.3e+06 RLU for the first, 7.11e+06 RLU for the second.

Compared with B15, B16 is higher in RLU: 4.65e+06 RLU for the first, 6.38e+06 RLU for the second.

Going from B17 to B18, the RLU rises from 2.85e+06 RLU to 5.84e+06 RLU.

With B19 the RLU was 6.62e+06 RLU.
